Source: PMC2196230 (The Journal of Experimental Medicine, 1997)

Target: the molecule itself
Assay: SEC

B1: recombinant soluble signaling lymphocytic activation molecule (sSLAM) with a Flag sequence at the carboxy terminus (natural protein, human, UniProt Q13291-3 21-305, looked up)
chain: ASYGTGGRMMNCPKILRQLGSKVLLPLTYERINKSMNKSIHIVVTMAKSLENSVENKIVSLDPSEAGPPRYLGDRYKFYLENLTLGIRESRKEDEGWYLMTLEKNVSVQRFCLQLRLYEQVSTPEIKVLNKTQENGTCTLILGCTVEKGDHVAYSWSEKAGTHPLNPANSSHLLSLTLGPQHADNIYICTVSNPISNNSQTFSPWPGCRTDPSGKTNHYQTTVEKKSLTIYAQVQKPGPLQKKLDSFPAQDPCTTIYVAATEPVPESVQETNSITVYASVTLPES
- stoichiometry N: 2
